Drawing on article doi:10.1101/2024.01.29.577677, this text covers fold increase in affinity relative to BA.2.86 RBD for three substances.

In this assay the target is human ACE2 (human) (UniProt Q9BYF1). Description: SPR. For orientation: In SPR one partner is held on a chip, and binding of the other changes the refractive index at the surface.

BA.2.86-H445V RBD (domain or fragment) had a fold increase in affinity relative to BA.2.86 RBD of 3 fold.

BA.2.86-P486F RBD (domain or fragment): the fold increase in affinity relative to BA.2.86 RBD was 3 fold.

For the substance BA.2.86-D450N RBD (domain or fragment), the fold increase in affinity relative to BA.2.86 RBD was found to be 3 fold.
